The source of these data is patent publication US20260242478A1 (published 2026).

Assay [1] addresses T1, PSMA Fab (006 PSMA Fab).
T1 construct: also called Anti-PSMA Fab; anti-PSMA Fab
In words: phage ELISA; biotinylated PSMA Fab on neutravidin plate, clonal phage supernatant, anti-M13 HRP detection.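 Further: wells preincubated with PSMA antigen in blocking buffer or with blocking buffer only before clonal phage were added for a short incubation, then bound phage detected.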
Description: (§1) Clonal phage were harvested as crude supernatants and screened via standard ELISAs. […] Prior to the addition of clonal phage. wells were incubated with blocking buffer and PSMA antigen or blocking buffer alone. Without washing or aspirating, clonal phage supernatants were then added to the wells and incubated for a short time. Wells were then washed followed by detection of bound phage using a horse radish conjugated anti-M13 antibody.

Assay [2] addresses T1, PSMA Fab (006 PSMA Fab). In words: phage ELISA; biotinylated PSMA Fab on neutravidin plate pre-incubated with PSMA antigen as competitor, anti-M13 HRP detection.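 Further: crude clonal phage supernatants tested, compared against control wells pre-incubated with blocking buffer only, without PSMA antigen.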 On the technique in general: In an ELISA, binding on a coated surface is turned into a signal by an enzyme label.
Description: as §1
Assay [3] concerns the target T2, Anti-PSMA Fab.
T2 construct: also called 006 PSMA Fab
In words: clonal phage ELISA on captured PSMA Fab, wells pre-incubated with PSMA antigen as competitor, anti-M13-HRP detection.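 Further: crude clonal phage supernatants added without washing after the PSMA preincubation, comparison wells received blocking buffer alone without PSMA, bound phage read after washing.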
Description: as §1

For assay [4], the target named is T2, Anti-PSMA Fab. In words: clonal phage ELISA on biotinylated PSMA Fab captured on neutravidin plates, anti-M13-HRP detection.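 Further: crude clonal phage supernatants added to wells preincubated with PSMA antigen or with blocking buffer only (no wash between), briefly incubated, then washed before detecting bound phage.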
Description: as §1
For assay [5], the target named is T3, PSMA Fab (SEQ ID NOs: 19, 20).
T3 construct: also called Anti-PSMA Fab; 006 PSMA Fab
In words: clonal phage ELISA; captured biotinylated PSMA Fab pre-incubated with PSMA antigen as competitor, anti-M13-HRP detection.
Description: as §1

The target is the same in assay [6]. In words: clonal phage ELISA; biotinylated PSMA Fab captured on neutravidin plate, bound phage detected with anti-M13-HRP.
Description: as §1

Where no end group is shown, it is not given here.

B1: Phage-3780 (peptide)
peptide: HMPLCIPVWMCAGF
modifications: not fully specified (residue 3); cysteine pairing not given here; also: displayed on phage as fusion to pIII, junction not given here
B1: the “Phage binding ELISA signal, Anti-PSMA Fab” value in assay [1] was 1.33. Further, in assay [2], the “Phage binding ELISA signal, Anti-PSMA Fab in presence of PSMA” value (“Phage binding ELISA signal … of PSMA” below) was found to be 0.113.

B2: Phage-3788 (peptide)
peptide: MLRSCVPPWMCAGF
modifications: cysteine pairing not given here; also: displayed on phage as fusion to pIII, junction not given here
notes: Clone of the Peptide-180 optimisation library, tested as clonal phage supernatant
For the molecule B2, the “Phage binding ELISA signal, Anti-PSMA Fab with PSMA antigen” value in assay [3] came to 0.0821. Besides, the “Phage binding ELISA signal, Anti-PSMA Fab” value in assay [4] is 1.32.

On to EYQRCIPEWMCSGF [Phage-3779], for which, in assay [1], the “Phage binding ELISA signal, Anti-PSMA Fab” value was determined as 1.33. In addition, in assay [2], the “Phage binding ELISA signal … of PSMA” value was found to be 0.0735.

Consider VEVRCVPAWMCEGL [Phage-3783], for which the “Phage binding ELISA signal, Anti-PSMA Fab” value in assay [1] was 1.33. Also, in assay [2], the “Phage binding ELISA signal … of PSMA” value was determined as 0.0698.

On to PVQLCIPSWMCDGF [Phage-3776], for which, in assay [1], the “Phage binding ELISA signal, Anti-PSMA Fab” value came to 1.33. Besides, in assay [2], the “Phage binding ELISA signal … of PSMA” value was determined as 0.0876.

B3: Phage-3805 (Peptide-180 library clone, SEQ ID NO: 4121) (peptide)
peptide: HMIHCVPDWMCEGF
notes: Tested as clonal phage supernatant; not shown: pIII coat protein of the bacteriophage to which the peptide is fused
In the case of B3, the “Phage binding ELISA signal, Anti-PSMA Fab with PSMA antigen” value in assay [5] came out at 0.0847. In addition, in assay [6], the “Phage binding ELISA signal, Anti-PSMA Fab” value was 1.3.

B4: Phage-3808 (Peptide-180 library clone, SEQ ID NO: 4124) (peptide)
peptide: LGVQCKPTWMCQGF
notes: as for B3
Turning to B4, the “Phage binding ELISA signal, Anti-PSMA Fab with PSMA antigen” value in assay [5] is 0.0911. The “Phage binding ELISA signal, Anti-PSMA Fab” value in assay [6] came out at 1.29.

B5: Phage-3786 (peptide)
peptide: EMIRCEPRWMCSGF
modifications: cysteine pairing not given here; also: displayed on phage as fusion to pIII, junction not given here
notes: as for B2
Turning to B5, in assay [3], the “Phage binding ELISA signal, Anti-PSMA Fab with PSMA antigen” value worked out at 0.0656. For the same molecule, in assay [4], the “Phage binding ELISA signal, Anti-PSMA Fab” value came out at 1.32.

B6: Phage-3793 (peptide)
peptide: FAFDCVPKWMCTGF
notes: as for B2
In the case of B6, in assay [3], the “Phage binding ELISA signal, Anti-PSMA Fab with PSMA antigen” value was 0.0829. Besides, the “Phage binding ELISA signal, Anti-PSMA Fab” value in assay [4] is 1.31.

B7: Phage-3800 (Peptide-180 library clone, SEQ ID NO: 4116) (peptide)
peptide: LELLCRPSWMCEGF
modifications: cysteine pairing not given here; also: displayed on phage as fusion to pIII, junction not given here
notes: as for B3
For the molecule B7, the “Phage binding ELISA signal, Anti-PSMA Fab with PSMA antigen” value in assay [5] is 0.0665. Also, in assay [6], the “Phage binding ELISA signal, Anti-PSMA Fab” value amounted to 1.3.

B8: Phage-3794 (peptide)
peptide: TVKQCVPEWMCVML
notes: as for B2
Turning to B8, the “Phage binding ELISA signal, Anti-PSMA Fab with PSMA antigen” value in assay [3] is 0.104. Besides, in assay [4], the “Phage binding ELISA signal, Anti-PSMA Fab” value turned out to be 1.31.

B9: Phage-3797 (peptide)
peptide: VEYLCKPVWMCQGF
notes: as for B2
Regarding B9, the “Phage binding ELISA signal, Anti-PSMA Fab with PSMA antigen” value in assay [3] worked out at 0.0609. In assay [4], the “Phage binding ELISA signal, Anti-PSMA Fab” value came out at 1.31.

B10: Phage-3809 (Peptide-180 library clone, SEQ ID NO: 4125) (peptide)
peptide: DARLCKPTWMCMGL
notes: as for B3
Turning to B10, the “Phage binding ELISA signal, Anti-PSMA Fab with PSMA antigen” value in assay [5] worked out at 0.0886. For the same molecule, in assay [6], the “Phage binding ELISA signal, Anti-PSMA Fab” value worked out at 1.29.

B11: Phage-3806 (Peptide-180 library clone, SEQ ID NO: 4122) (peptide)
peptide: DQAACVPAWMCTGF
notes: as for B3
Regarding B11, the “Phage binding ELISA signal, Anti-PSMA Fab with PSMA antigen” value in assay [5] is 0.117. In assay [6], the “Phage binding ELISA signal, Anti-PSMA Fab” value was 1.3.

Consider SVVKCVPSWMCTGF [Phage-3785], for which the “Phage binding ELISA signal, Anti-PSMA Fab” value in assay [1] turned out to be 1.32. Further, in assay [2], the “Phage binding ELISA signal … of PSMA” value is 0.0729.

B12: Phage-3792 (peptide)
peptide: HMQYCIPQWMCHGF
notes: as for B2
On to B12, for which the “Phage binding ELISA signal, Anti-PSMA Fab with PSMA antigen” value in assay [3] was found to be 0.0825. Also, the “Phage binding ELISA signal, Anti-PSMA Fab” value in assay [4] was 1.32.

B13: Phage-3807 (Peptide-180 library clone, SEQ ID NO: 4123) (peptide)
peptide: VVSHCKPIWMCSGF
notes: as for B3
On to B13, for which the “Phage binding ELISA signal, Anti-PSMA Fab with PSMA antigen” value in assay [5] amounted to 0.083. Besides, in assay [6], the “Phage binding ELISA signal, Anti-PSMA Fab” value was 1.29.

In the case of VQLMCMPEWMCSGL [Phage-3775], in assay [1], the “Phage binding ELISA signal, Anti-PSMA Fab” value turned out to be 1.33. Also, the “Phage binding ELISA signal … of PSMA” value in assay [2] turned out to be 0.0599.

B14: Phage-3789 (peptide)
peptide: EQVLCRPEWMCIGF
notes: as for B2
B14: the “Phage binding ELISA signal, Anti-PSMA Fab with PSMA antigen” value in assay [3] is 0.0856. Moreover, in assay [4], the “Phage binding ELISA signal, Anti-PSMA Fab” value stood at 1.32.

B15: Phage-3781 (peptide)
peptide: LVARCVPEWMCAGF
modifications: cysteine pairing not given here; also: displayed on phage as fusion to pIII, junction not given here
As for B15, the “Phage binding ELISA signal, Anti-PSMA Fab” value in assay [1] was found to be 1.33. Besides, the “Phage binding ELISA signal … of PSMA” value in assay [2] was determined as 0.102.

B16: Phage-3803 (Peptide-180 library clone, SEQ ID NO: 4119) (peptide)
peptide: GGPMCKPVWMCQGF
notes: as for B3
B16: the “Phage binding ELISA signal, Anti-PSMA Fab with PSMA antigen” value in assay [5] worked out at 0.0735. Besides, the “Phage binding ELISA signal, Anti-PSMA Fab” value in assay [6] is 1.3.

B17: Phage-3799 (peptide)
peptide: LELACRPMWMCQGF
notes: as for B2
For B17, in assay [3], the “Phage binding ELISA signal, Anti-PSMA Fab with PSMA antigen” value was 0.0709. The “Phage binding ELISA signal, Anti-PSMA Fab” value in assay [4] is 1.31.

B18: Phage-3810 (Peptide-180 library clone, SEQ ID NO: 4126) (peptide)
peptide: GDQMCIPLWMCEGF
notes: as for B3
As to B18, the “Phage binding ELISA signal, Anti-PSMA Fab with PSMA antigen” value in assay [5] was found to be 0.106. Further, the “Phage binding ELISA signal, Anti-PSMA Fab” value in assay [6] amounted to 1.29.

B19: Phage-3787 (peptide)
peptide: LKVECRPLWMCEGF
notes: as for B2
Regarding B19, the “Phage binding ELISA signal, Anti-PSMA Fab with PSMA antigen” value in assay [3] came to 0.075. For the same molecule, the “Phage binding ELISA signal, Anti-PSMA Fab” value in assay [4] was determined as 1.32.

B20: Phage-3801 (Peptide-180 library clone, SEQ ID NO: 4117) (peptide)
peptide: EWLVCKPAWMCLGL
notes: as for B3
B20: the “Phage binding ELISA signal, Anti-PSMA Fab with PSMA antigen” value in assay [5] worked out at 0.0609. Further, the “Phage binding ELISA signal, Anti-PSMA Fab” value in assay [6] amounted to 1.3.

Consider PGASCVPAWMCDGF [Phage-3784], for which the “Phage binding ELISA signal, Anti-PSMA Fab” value in assay [1] worked out at 1.33. Further, the “Phage binding ELISA signal … of PSMA” value in assay [2] came out at 0.0653.

B21: Phage-3796 (peptide)
peptide: MERSCIPDWMCLGF
notes: as for B2
With B21, in assay [3], the “Phage binding ELISA signal, Anti-PSMA Fab with PSMA antigen” value was found to be 0.0541. Besides, the “Phage binding ELISA signal, Anti-PSMA Fab” value in assay [4] is 1.31.

B22: Phage-3795 (peptide)
peptide: DLIYCRPAWMCDGF
notes: as for B2
As for B22, the “Phage binding ELISA signal, Anti-PSMA Fab with PSMA antigen” value in assay [3] is 0.0679. Further, the “Phage binding ELISA signal, Anti-PSMA Fab” value in assay [4] was 1.31.

B23: Phage-3804 (Peptide-180 library clone, SEQ ID NO: 4120) (peptide)
peptide: IRALCEPSWMCTGF
notes: as for B3
Regarding B23, the “Phage binding ELISA signal, Anti-PSMA Fab with PSMA antigen” value in assay [5] is 0.0766. Also, in assay [6], the “Phage binding ELISA signal, Anti-PSMA Fab” value was found to be 1.3.

B24: Phage-3790 (peptide)
peptide: VSQLCIPEWMCIGI
notes: as for B2
B24: the “Phage binding ELISA signal, Anti-PSMA Fab with PSMA antigen” value in assay [3] amounted to 0.08. In addition, the “Phage binding ELISA signal, Anti-PSMA Fab” value in assay [4] amounted to 1.32.

For VTTLCRPAWMCHGF [Phage-3778], the “Phage binding ELISA signal, Anti-PSMA Fab” value in assay [1] was determined as 1.33. Moreover, the “Phage binding ELISA signal … of PSMA” value in assay [2] turned out to be 0.0881.

B25: Phage-3798 (peptide)
peptide: MSMYCVPTWMCNGF
notes: as for B2
As for B25, the “Phage binding ELISA signal, Anti-PSMA Fab with PSMA antigen” value in assay [3] is 0.0602. Besides, the “Phage binding ELISA signal, Anti-PSMA Fab” value in assay [4] amounted to 1.31.

Consider YSNFCVPHWMCSGF [Phage-3782], for which the “Phage binding ELISA signal, Anti-PSMA Fab” value in assay [1] came out at 1.33. Also, the “Phage binding ELISA signal … of PSMA” value in assay [2] amounted to 0.0679.

B26: Phage-3802 (Peptide-180 library clone, SEQ ID NO: 4118) (peptide)
peptide: EVLRCVPRWMCEKF
notes: as for B3
As to B26, the “Phage binding ELISA signal, Anti-PSMA Fab with PSMA antigen” value in assay [5] amounted to 0.0658. In assay [6], the “Phage binding ELISA signal, Anti-PSMA Fab” value amounted to 1.3.

B27: Phage-3791 (peptide)
peptide: VHMACTPWWMCVGF
notes: as for B2
For the molecule B27, the “Phage binding ELISA signal, Anti-PSMA Fab with PSMA antigen” value in assay [3] stood at 0.0962. In assay [4], the “Phage binding ELISA signal, Anti-PSMA Fab” value worked out at 1.32.

On to ISPICRPAWMCHGF [Phage-3777], for which the “Phage binding ELISA signal, Anti-PSMA Fab” value in assay [1] came out at 1.33. For the same molecule, in assay [2], the “Phage binding ELISA signal … of PSMA” value stood at 0.0873.

B28: Phage-3811 (Peptide-180 library clone, SEQ ID NO: 4127) (peptide)
peptide: SFQRCEPEWMCYGF
notes: as for B3
In the case of B28, the “Phage binding ELISA signal, Anti-PSMA Fab with PSMA antigen” value in assay [5] is 0.0768. For the same molecule, in assay [6], the “Phage binding ELISA signal, Anti-PSMA Fab” value was 1.29.
